From EP3494999A1, “PSMA LIGANDS FOR IMAGING AND ENDORADIOTHERAPY” (Technische Universität München, priority 2017, dated 2019)
Square brackets hold non-standard residues; d marks the D form. Peptide text beside a SMILES is read from it. * marks the point of attachment. X1 = O=C(O)CC[C@H](NC(=O)N[C@@H](CCCCNC(=O)CCCCCCC(=O)*)C(=O)O)C(=O)O; DOTAGA = O=C(O)CN1CCN(CC(=O)O)CCN(C(CCC(=O)*)C(=O)O)CCN(CC(=O)O)CC1; dPhe(4-NH2) = Nc1ccc(C[C@@H](N)C(=O)O)cc1; dTyr(3-I) = N[C@H](Cc1ccc(O)c(I)c1)C(=O)O; Phe(4-NH2) = Nc1ccc(C[C@H](N)C(=O)O)cc1; d2Nal = N[C@H](Cc1ccc2ccccc2c1)C(=O)O

Legend:
[1] = target: T1, human serum albumin (HSA) (Homo sapiens, UniProt P02768); format: in vitro ADME
T1 construct: purchased Daicel Chemical Industries, purchased from Chiral Technologies Europe (France)
Description: The Fmoc-(9-fluorenylmethoxycarbonyl-) and all other protected amino acid analogs were purchased from Bachem (Bubendorf, Switzerland) or Iris Biotech (Marktredwitz, Germany). […] The tritylchloride polystyrene (TCP) resin was obtained from PepChem (Tubingen, Germany). Chematech (Dijon, France) delivered the chelator DOTAGA-anhydride. All necessary solvents and other organic reagents were purchased from either Alfa Aesar (Karlsruhe, Germany), Sigma-Aldrich (Munich, Germany) or VWR (Darmstadt, Germany). Solid phase synthesis of the peptides was carried out by manual operation using an Intelli-Mixer syringe shaker (Neolab, Heidelberg, Germany). […] Analysis of the peptides was performed by applying different gradients of 0.1% (v/v) trifluoroacetic acid (TFA) in H2O (solvent A) and 0.1% TFA (v/v) in acetonitrile (MeCN) (solvent B) with a constant flow of 1 mL/min (specific gradients are cited in the text). […] Human serum albumin (HSA) binding was determined using a Chiralpak HSA 50 x 3 mm 5µm Analytical Column connected to a Chiralpak HSA 10 x 3 mm 5µm Guard Cartridge (Daicel Chemical Industries) purchased from Chiral Technologies Europe (France). Nonlinear regression for the HSA binding was performed using OriginPro 2016G. Both retention times tR as well as the capacity factors K' are cited in the text. […] Radioactivity was detected through connection of the outlet of the UV-photometer to a Nal(TI) well-type scintillation counter from EG&G Ortec (Munich, Germany). […] ESI-mass spectra were acquired on an expression^L CMS mass spectrometer (Advion Ltd., Harlow, UK) and on a Varian 500-MS IT mass spectrometer (Agilent Technologies, Santa Clara, USA). For the HSA binding experiment a Chiralpak HSA 50 x 3 mm 5µm Analytical Column, (Daicel Chemical Industries, LTD) connected to a Chiralpak HSA 10 x 3 mm 5µm Guard Cartridge (Daicel Chemical Industries; Chiral Technologies Europe) was used.
The mobile phase was freshly prepared for each experiment and only used for one day. The column was kept at room temperature and each run was stopped after detection of the signal to reduce the acquisition time. All substances were dissolved in a 0.5mg/ml concentration in 50% 2-Propanol and 50% 50mM pH 6.9 ammonium acetate buffer. […] All nine reference substances were injected consecutively to establish a non-linear regression with OriginPro 2016G. […] Table 1: Reference substances used for the calibration of the HSA-column.

[2] = target: PSMA (Homo sapiens, UniProt Q04609); experiment: Internalization of radiolabeled PSMA inhibitors into cells (PMPA blockade); format: cell-based; set-up: endogenous in cells; LNCaP is named only for the xenografts; settings: 177Lu-labeled inhibitors, 37°C; reference basis of the % not stated
Method: The ^177Lu-labeled compounds, for in vitro studies, were prepared as previously described (Sosabowski, J.K. and S.J. Mather, Conjugation of DOTA-like chelating agents to peptides and radiolabeling with trivalent metallic isotopes. Nat. Protocols, 2006. 1(2): p. 972-976) with minor modifications and used without further purification. In short, to a reaction volume of 10 µL 1.0 M NH4OAc buffer pH = 5.9 was added 0.75 to 1.0 nmol tracer (7.5 to 10 µL), 10 to 40 MBq ^177LuCl3 (Specific Activity (AS) > 3000 GBq/mg, 740 MBq/mL, 0.04 M HCl, ITG, Garching, Germany) and finally filled up to 100 µL with trace-pure Water (Merck, Darmstadt, Germany). The reaction mixture was heated for 30 min at 95°C and the radiochemical purity was determined using Radio-TLC.
[…] Each well was treated with either 25 µL of either DMEM-F12 (5% BSA) or a 100 µM PMPA solution for blockade. Next, 25 µL of the respective ^68Ga-and ^177Lu-labeled PSMA inhibitors (2.0 nM / 5.0 nM) was added and the cells incubated at 37°C for 5, 15, 30 and 60 min, respectively. The experiment was terminated by placing the 24-well plate on ice for 3 min and consecutive removal of the medium. Each well was rinsed with 250 µL HBSS and the fractions from these first two steps combined, representing the amount of free radioligand. Removal of surface bound activity was accomplished by incubation of the cells with 250 µL of ice-cold PMPA (10 µM in PBS) solution for 5 min and rinsed again with another 250 µL of ice-cold PBS. The internalized activity was determined by incubation of the cells in 250 µL 1.0 M NaOH and the combination with the fraction of a subsequent wash step with 250 µL 1.0 M NaOH. Each experiment (control and blockade) was performed in triplicate for each time point. Free, surface bound and internalized activity was quantified in a γ-counter.

[3] = format: physicochemical
Method: To a volume of 500 µL n-octanol, 0.5 to 1.0 MBq of the radiolabeled PSMA inhibitor in 500 µL PBS (pH = 7.4) was added and rigorously vortexted for 3 min (n = 6). For quantitative phase separation, the mixture was centrifuged at 6,000 g for 5 min (Biofuge 15, Heraus Sepatech, Osterode, Germany).

T1 sequence (P02768 25-609): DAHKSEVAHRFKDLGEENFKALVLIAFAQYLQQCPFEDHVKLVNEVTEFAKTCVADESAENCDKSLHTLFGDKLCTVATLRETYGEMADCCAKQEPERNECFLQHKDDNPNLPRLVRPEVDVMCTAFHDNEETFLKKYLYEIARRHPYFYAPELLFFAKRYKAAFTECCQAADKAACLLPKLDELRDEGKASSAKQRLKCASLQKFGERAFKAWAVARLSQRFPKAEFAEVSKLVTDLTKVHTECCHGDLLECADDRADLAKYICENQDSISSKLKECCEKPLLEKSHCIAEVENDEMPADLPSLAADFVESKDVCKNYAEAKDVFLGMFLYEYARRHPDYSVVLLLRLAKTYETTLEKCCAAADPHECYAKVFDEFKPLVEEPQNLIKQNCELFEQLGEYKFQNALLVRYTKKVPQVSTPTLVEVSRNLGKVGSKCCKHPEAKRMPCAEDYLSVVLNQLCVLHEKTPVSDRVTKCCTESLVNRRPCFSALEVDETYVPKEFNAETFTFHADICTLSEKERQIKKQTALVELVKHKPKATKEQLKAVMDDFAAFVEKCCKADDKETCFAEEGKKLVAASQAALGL
Chain of PSMA (Q04609 whole entry): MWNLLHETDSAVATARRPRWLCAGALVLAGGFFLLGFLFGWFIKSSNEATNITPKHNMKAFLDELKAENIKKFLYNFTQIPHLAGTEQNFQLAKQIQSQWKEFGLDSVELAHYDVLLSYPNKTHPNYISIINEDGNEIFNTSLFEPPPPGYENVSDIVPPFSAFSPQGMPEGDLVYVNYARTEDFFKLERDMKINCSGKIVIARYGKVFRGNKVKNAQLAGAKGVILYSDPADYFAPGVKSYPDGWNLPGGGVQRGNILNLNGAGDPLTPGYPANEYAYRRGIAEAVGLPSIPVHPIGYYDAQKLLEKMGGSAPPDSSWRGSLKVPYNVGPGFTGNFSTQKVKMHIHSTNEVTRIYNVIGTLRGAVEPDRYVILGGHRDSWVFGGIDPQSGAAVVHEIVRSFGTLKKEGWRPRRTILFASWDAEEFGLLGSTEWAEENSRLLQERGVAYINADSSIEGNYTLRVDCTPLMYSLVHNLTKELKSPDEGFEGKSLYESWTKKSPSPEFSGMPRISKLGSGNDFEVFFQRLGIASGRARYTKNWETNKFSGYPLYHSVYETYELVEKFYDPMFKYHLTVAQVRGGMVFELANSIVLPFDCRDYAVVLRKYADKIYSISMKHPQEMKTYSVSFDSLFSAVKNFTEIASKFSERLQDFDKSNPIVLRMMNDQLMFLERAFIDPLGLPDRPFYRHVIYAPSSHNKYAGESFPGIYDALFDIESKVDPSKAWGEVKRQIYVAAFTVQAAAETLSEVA

SMILES	HSA [%] [1]	Internalization [%] [2]	logP [3]
Nc1ccc(C[C@H](NC(=O)CCC(C(=O)O)N2CCN(CC(=O)O)CCN(CC(=O)O)CCN(CC(=O)O)CC2)C(=O)N[C@H](Cc2ccc(O)cc2)C(=O)N[C@H](Cc2ccc3ccccc3c2)C(=O)N[C@H](CCCCNC(=O)CCCCCCC(=O)NCCCC[C@H](NC(=O)N[C@@H](CCC(=O)O)C(=O)O)C(=O)O)C(=O)O)cc1 (stereo partly shown) [[^nat/177Lu]PSMA-6, DOTAGA-(4-NH2)F-y-nal-k-KuE, metal not drawn] ({DOTAGA}-[Phe(4-NH2)][dY][d2Nal][dK](X1)-OH)	83.17%	108.8 ± 2.5%	–
Nc1ccc(C[C@H](NC(=O)CCC(C(=O)O)N2CCN(CC(=O)O)CCN(CC(=O)O)CCN(CC(=O)O)CC2)C(=O)N[C@H](Cc2ccc(O)c(I)c2)C(=O)N[C@H](Cc2ccccc2)C(=O)N[C@H](CCCCNC(=O)CCCCCCC(=O)NCCCC[C@H](NC(=O)N[C@@H](CCC(=O)O)C(=O)O)C(=O)O)C(=O)O)cc1 (stereo partly drawn) [[^nat/177Lu]PSMA-3, DOTAGA-(4-NH2)F-(l-y)-f-k-KuE, metal not drawn] ({DOTAGA}-[Phe(4-NH2)][dTyr(3-I)][dF][dK](X1)-OH)	91.9%	166.92 ± 2.4%	–
Nc1ccc(C[C@@H](NC(=O)CCC(C(=O)O)N2CCN(CC(=O)O)CCN(CC(=O)O)CCN(CC(=O)O)CC2)C(=O)N[C@H](Cc2ccc(O)c(I)c2)C(=O)N[C@H](Cc2ccccc2)C(=O)N[C@H](CCCCNC(=O)CCCCCCC(=O)NCCCC[C@H](NC(=O)N[C@@H](CCC(=O)O)C(=O)O)C(=O)O)C(=O)O)cc1 (stereo partly drawn) [[^nat/177Lu]PSMA-2, DOTAGA-(4-NH2)f-(l-y)-f-k-KuE, metal not drawn] ({DOTAGA}-[dPhe(4-NH2)][dTyr(3-I)][dF][dK](X1)-OH)	82.5%	122.15 ± 1.3%	-4.11 ± 0.06
O=C(O)CC[C@H](NC(=O)N[C@@H](CCCCNC(=O)CCCCCCC(=O)NCCCC[C@@H](NC(=O)[C@@H](Cc1ccc2ccccc2c1)NC(=O)[C@@H](Cc1ccc(O)cc1)NC(=O)CCC(C(=O)O)N1CCN(CC(=O)O)CCN(CC(=O)O)CCN(CC(=O)O)CC1)C(=O)O)C(=O)O)C(=O)O (stereo partly shown) [[^nat/177Lu]PSMA-4, DOTAGA-y-nal-k-KuE, metal not drawn, reference compound]	82.6%	71.7 ± 0.7%	-4.11 ± 0.06
O=C(O)CC[C@H](NC(=O)N[C@@H](CCCCNC(=O)[C@@H](Cc1ccc(I)cc1)NC(=O)CCCC(=O)NCCCC[C@@H](NC(=O)[C@@H](Cc1ccc2ccccc2c1)NC(=O)[C@@H](Cc1ccc(O)cc1)NC(=O)CCC(C(=O)O)N1CCN(CC(=O)O)CCN(CC(=O)O)CCN(CC(=O)O)CC1)C(=O)O)C(=O)O)C(=O)O (stereo partly drawn) [[^nat/177Lu]PSMA-10, DOTAGA-y-nal-k(Glut-(l-f)-KuE), metal not drawn, reference compound]	96.61%	118.6 ± 0.5%	-3.05 ± 0.02
